Reference: paper PMC7473711, “Characterization of the different oligomeric states of the DAN family antagonists SOSTDC1 and SOST” (Biochemical Journal, 2020)

Key:
[1] = molecular target: the molecule itself; experiment: SEC; protein that was monomeric at low pH (pH 3.0) neutralised to pH 7.5 and run again on SEC
[2] = molecular target: the molecule itself; experiment: SEC; analytical SEC, Superdex S75 HR 10/300, room temperature, 0.5 ml/min, 20 mM HEPES, 1 M NaCl, pH 7.5; 100-150 µg protein loaded; self-association

Protein | stoichiometry N [1] | stoichiometry N [2]
Gremlin2 (natural protein, Gremlin2 (Grem2); also called Grem2) RKNRPAGAIPSPYKDGSSNNSERWHHQIKEVLASSQEALVVTERKYLKSDWCKTQPLRQTVSEEGCRSRTILNRFCYGQCNSFYIPRHVKKEEDSFQSCAFCKPQRVTSVIVELECPGLDPPFRIKKIQKVKHCRCMSVNLSDSDKQ | 2 | 
human SOSTDC1 (Sclerostin domain containing protein 1) (natural protein, UniProt Q6X4U4 24-206, looked up, native glycosylation, signal peptide in the construct; SOSTDC1, human, full-length gene made by gene synthesis and codon optimised (GenScript), in pcDNA4 (pCDNA4-hSOSTDC1-PP-Myc-His); secreted into conditioned medium; after cleavage the residues LEVLFQ probably stay on the C-terminus (surmised); The secreted protein probably lacks its signal peptide (surmised); also called hSOSTDC1; Wise; source: Expi293F, transiently …) FKNDATEILYSHVVKPVPAHPSSNSTLNQARNGGRHFSNTGLDRNTRVQVGCRELRSTKYISDGQCTSISPLKELVCAGECLPLPVLPNWIGGGYGTKYWSRRSSQEWRCVNDKTRTQRIQLQCQDGSTRTYKITVVTACKCKRYTRQHNESSHNFESMSPAKPVQHHRERKRASKSSKHSMS |  | 2
chicken SOSTDC1 (Sclerostin domain containing protein 1), residues 23-206 (natural protein, UniProt Q6VYA3 23-206, looked up, SOSTDC1, chicken, amino acid residues 23-206, cloned into pET21a from pCS2-Flag-cSOSTDC1; 20.7 kDa; The vector is pET21a; also called cSOSTDC1; Wise) AFKNDATEILYSHVVKPAPASPSSNSTLNQARNGGRHYAGTGSDRNNRVQVGCRELRSTKYISDGQCTSINPLKELVCAGECLPLPLLPNWIGGGYGTKYWSRRSSQEWRCVNDKTRTQRIQLQCQDGSIRTYKITVVTACKCKRYTRQHNESSHNFEGTSQAKPVQHHKERKRASKSSKHSTS |  | 2
